These results are taken from patent US20240025969A1, “NPC1 MONOBODIES AND MONOBODY CONJUGATES THEREOF” (NEW YORK UNIVERSITY, priority 2020, published 2024).

Entries after “also recorded” stand apart in the source; their conditions may differ.

For one experiment, the system named is ERK. The experiment can be described thus: ERK hyperactivation in NPC1 knockdown cells, EGFR inhibition. In kind it is cell-based. The conditions noted are these: short-term EGFR inhibition.
For another experiment, the system named is HeLa cells. Nature of the experiment: LC3B accumulation in macropinocytosis negative wild-type KRas HeLa cells. It is filed as cell-based. The procedure: (§1) FIGS. 8A-8B show mutant KRas-dependent effects of NPC1-targeting monobodies. N23 and N34 clones were analyzed for effect on macropinocytosis negative wild-type KRas HeLa cells (FIG. 8A) versus macropinocytosis-positive mutant KRas […] cells (FIG. 8B). FN is a non-targeting monobody control. Arrows indicate LC3B accumulation.

The subject of a further experiment is HCT-116 cell. The experiment can be described thus: HCT-116 cell proliferation, Syto60 assay. It is filed as cell-based. The conditions noted are these: Syto60 assay after 3 days of treatment, n=3. The procedure: Proliferation was analyzed by Syto60 assay after 3 days of treatment. n=3
The next experiment relates to PDAC MIA PaCa3 cells. Nature of the experiment: Calcein endosomal release assay, with or without nanoparticle delivery vehicle. It is filed as cell-based. The note with it: for endosomal release of calcein: calcein alone (PBS) or packaged in pegylated nanoparticle delivery vehicles (90 nm Nano), both conditions; for calcein fluorescence (endosomal release of calcein): co-delivery with calcein (FIG. 17). From the text: Calcein is a membrane impermeable, fluid phase uptake marker that is semi-quenched when in close proximity with other calcein molecules in vesicular compartments, but with intracellular release and molecule diffusion, dequenching causes an increase in cellular fluorescence.
FIGS. 18A-18B show an NCP1 monobody mediated increase in endosomal calcein release that was further improved in the presence of a nanoparticle delivery vehicle. FIG. 18A is a panel of immunocytochemical images of PDAC MIA PaCa3 cells treated with calcein alone (PBS) or packaged in a pegylated nanoparticle delivery vehicles (90 nm Nano) (images of top row). […] FIG. 18B is a graph quantifying calcein fluorescence in each of the tested conditions.
Endosome escape was again observed in a small molecule assay (FIG. 17). Calcein is a membrane impermeable, fluid phase uptake marker that is semi-quenched when in close proximity with other calcein molecules in vesicular compartments, but with intracellular release and molecule diffusion, dequenching causes an increase in cellular fluorescence. […] The NPC1 targeting monobodies have been established to induce small molecule, biologic, and nanoparticle escape.

Experiment [1] concerns Mutant Ras PDAC MIA PaCa-2 cells. Nature of the experiment: Split GFP assay for endosomal escape of GFP11. The note with it: MIA PaCa-2 cells expressing GFP1-10; 600 mM GFP11 with 1 mM monobody for 24 hrs. In kind it is cell-based. The procedure:
Mutant Ras PDAC MIA PaCa-2 cells stably expressing cytoplasmic GFP1-10 were treated with 600 mM GFP11 with or without 1 mM of the N23 or N34 NCP1 monobody for 24 hrs.
A split GFP assay was developed to measure endosomal escape of proteins. Mutant Ras PDAC MIA PaCa-2 cells were stably expressed with GFP1-10, which is missing the 11β domain needed for fluorescence, making endosomal escape of GFP110 necessary for a positive signal. NPC1 targeting and control monobodies were co-delivered with the free GFP110 domain.

A further experiment concerns xenografts. The experiment can be described thus: Intratumor injection of monobody into xenografts. It is filed as in vivo. The procedure: FIG. 11 show the in vivo cholesterol alterations with NPC1-targeting monobody (N34) versus non-targeting control (FN).
Monobody (1 uM; 50ul volume) was intratumorally injected two hours prior to tumor extraction.
Monobody (1 uM; 50ul volume) was intratumorally injected two hours prior to tumor extraction. Images were taken of serial sections from FIG. 13B.
(§2) Confirmation that uptake is dependent on macropinocytosis was confirmed in CRC cell lines. […] It was also observed that upon NPC1 knockdown in vitro, there is ERK hyperactivation (FIG. 13A). This observation was confirmed using the N34 monobody in vivo (FIG. 13B).

The test system of the next experiment is HCA7. Nature of the experiment: Monobody uptake in wild-type KRas CRC cells. It is filed as cell-based. The note with it: macropinocytosis negative.
From the text: (§3) FIGS. 10A-10B show monobody selectivity in colorectal DLD-1 and HCT-116 cancer cells (CRC).
as §2

The subject of experiment [2] is HCT-116. The experiment can be described thus: LC3B accumulation in HCT-116 cells. In kind it is cell-based.
From the text: as §3, §2

The test system of a further experiment is DLD-1. The experiment can be described thus: Monobody uptake in mutant KRas CRC cells DLD-1. It is filed as cell-based. The conditions noted are these: mutant KRas CRC cells DLD-1, macropinocytosis positive.
From the text: as §3, §2

For the next experiment, the system named is HeLa KRasV12 cells. The experiment can be described thus: LC3B accumulation in macropinocytosis-positive mutant KRas HeLa cells. In kind it is cell-based. The procedure: as §1
The subject of experiment [3] is HCT-116. Nature of the experiment: Monobody uptake in mutant KRas CRC cells HCT-116. In kind it is cell-based. The conditions noted are these: mutant KRas CRC cells HCT-116, macropinocytosis positive.
From the text: as §3, §2

Another experiment has as its target T1, NPC1 (Homo sapiens, UniProt O15118).
T1 construct: endogenous in cells; host or cells: DLD-1 (mutant KRas colorectal cancer cells)
T1 sequence (O15118 23-1278): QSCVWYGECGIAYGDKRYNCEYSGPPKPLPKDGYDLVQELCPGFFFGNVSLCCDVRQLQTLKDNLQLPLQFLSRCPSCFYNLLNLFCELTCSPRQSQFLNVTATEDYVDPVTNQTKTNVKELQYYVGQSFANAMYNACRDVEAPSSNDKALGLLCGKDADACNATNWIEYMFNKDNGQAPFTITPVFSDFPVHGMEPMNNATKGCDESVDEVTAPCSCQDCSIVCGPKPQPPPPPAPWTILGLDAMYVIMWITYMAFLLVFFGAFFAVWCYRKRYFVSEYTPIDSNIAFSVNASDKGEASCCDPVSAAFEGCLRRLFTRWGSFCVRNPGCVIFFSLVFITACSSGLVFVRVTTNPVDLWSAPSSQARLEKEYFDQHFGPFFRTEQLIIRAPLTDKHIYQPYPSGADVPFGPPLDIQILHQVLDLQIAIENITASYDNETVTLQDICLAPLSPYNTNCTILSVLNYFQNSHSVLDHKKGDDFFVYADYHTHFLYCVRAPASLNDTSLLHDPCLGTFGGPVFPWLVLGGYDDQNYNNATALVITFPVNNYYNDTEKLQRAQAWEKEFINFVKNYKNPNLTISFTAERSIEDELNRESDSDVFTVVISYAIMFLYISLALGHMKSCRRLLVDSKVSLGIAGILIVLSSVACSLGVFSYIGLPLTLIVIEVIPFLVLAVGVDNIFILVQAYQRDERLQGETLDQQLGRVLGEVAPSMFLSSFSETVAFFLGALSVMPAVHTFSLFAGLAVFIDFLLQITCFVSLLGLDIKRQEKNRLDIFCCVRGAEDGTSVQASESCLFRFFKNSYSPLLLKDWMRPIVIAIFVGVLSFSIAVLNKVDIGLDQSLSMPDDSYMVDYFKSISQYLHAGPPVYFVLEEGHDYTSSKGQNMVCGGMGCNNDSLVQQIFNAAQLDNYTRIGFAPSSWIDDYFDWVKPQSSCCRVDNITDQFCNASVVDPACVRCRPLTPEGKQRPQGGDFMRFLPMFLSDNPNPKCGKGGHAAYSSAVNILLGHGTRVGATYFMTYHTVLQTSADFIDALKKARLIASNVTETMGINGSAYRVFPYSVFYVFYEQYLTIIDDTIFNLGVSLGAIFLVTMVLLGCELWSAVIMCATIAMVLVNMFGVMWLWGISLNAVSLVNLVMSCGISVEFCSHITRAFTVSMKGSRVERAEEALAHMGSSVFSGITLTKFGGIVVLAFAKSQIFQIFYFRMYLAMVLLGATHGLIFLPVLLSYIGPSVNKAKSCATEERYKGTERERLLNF
Nature of the experiment: Screen for NPC1-inhibitory monobodies: intracellular cholesterol trafficking, filipin. The note with it: for inhibition of NPC1 by endosomal accumulation of cholesterol: DLD1 cells (Ras mutation, colon), cholesterol measured by filipin; for cholesterol entrapment / vesicle disruption: DLD1 cells, preliminary data; for cholesterol entrapment: filipin. In kind it is cell-based. From the text:
FIG. 7A is a graph showing the effect of monobody clones on intracellular cholesterol trafficking. FIG. 7B are representative cell images from FIG. 7A. FIG. 7C is a heat map representation of cholesterol localization from FIG. 7B.
A major benefit of monobodies over antibodies is the lower cost in manufacturing. However, if monobodies need to be re-folded or aggregate during production, the cost of manufacturing can exceed that of antibodies. […] Utilizing both the imaging-based and biochemical approaches, it was confirmed that the monobodies described herein inhibit NPC1 in cell culture. […] FIG. 7B DLD1 cells (Ras mutation, colon) were treated with the top monobody hits and cholesterol was measured by filipin.

[4] abbreviates: N34-positive vs N34-negative areas, 1 uM, 50ul intratumorally, 2 hours post-injection.
The mark [5] stands for this setting: N34-positive vs N34-negative tumor, 1 uM, 50ul intratumorally two hours prior to tumor extraction.

For the molecule `COc1cc2ncnc(Nc3ccc(F)c(Cl)c3)c2cc1NC(=O)/C=C/CN1CCCCC1` [dacomitinib], the ERK hyper-activation entry in the experiment on ERK is “blocked ERK hyper-activation”.

B1: N34: NPC1-targeting monobody clone N34 (SEQ ID NO: 40) (protein)
chain: VSSVPTKLEVVAATPTSLLISWDAPAVTVSYYVITYGETGGHYWHWQTFKVPGSKSTATISGLKPGVDYTITVYAYYGQMRYYSPISINYRT
Regarding B1, in the experiment with HeLa cells, the LC3B accumulation entry is recorded as “did not induce LC3B accumulation”. Also, the CRC cell proliferation entry with HCT-116 cell is reported as “growth inhibitory effect”. For the same molecule, in the experiment on PDAC MIA PaCa3 cells, the “endosomal release of calcein” value is recorded as “enhanced endosomal release of calcein” and the “calcein fluorescence (endosomal release of calcein)” value is on record as “increasing calcein fluorescence”. For the same molecule, the “fluorescence (endosomal escape of GFP11)” value in [1] is recorded as “observed”. Moreover, in the experiment with xenografts (setting [4]), the “LC3B accumulation in xenograft” value was “robust cholesterol and LC3B accumulation; also recorded: induces cholesterol and LC3B accumulation”; the “cholesterol accumulation in xenograft” value is “robust cholesterol and LC3B accumulation; also recorded: induces cholesterol and LC3B accumulation”. Besides, in the experiment on xenografts (setting [5]), the “EGFR phosphorylation (activation) in tumor” value is listed as “EGFR activation was seen; also recorded: induces EGFR phosphorylation” and the “ERK phosphorylation (hyperactivation) in tumor” value was “confirmed; also recorded: induces ERK phosphorylation”. The “cholesterol accumulation in tumor cells” value in the experiment with xenografts (N34 positive tumor cells compared to non-targeting control monobody (FN)) is “displayed cholesterol accumulation”. For the same molecule, the “uptake in CK8-positive tumor cells” value in the experiment on xenografts (intratumor injection into xenografts) is “showed uptake”. In addition, the uptake of monobody result with HCA7 is listed as “fail to uptake”. For the same molecule, the “accumulation of LC3B” value in the experiment on HCT-116 [2] is listed as “dose-dependent accumulation of LC3B”. The uptake of monobody entry in the experiment on DLD-1 is “efficiently internalize”. In addition, in the experiment on HeLa KRasV12 cells, the LC3B accumulation entry is on record as “did show an effect”. Moreover, the uptake of monobody entry in the experiment with HCT-116 [3] is recorded as “efficiently internalize”. Also, in the experiment with NPC1, the “inhibition of NPC1 by endosomal accumulation of cholesterol” value was “greatest inhibition of NPC1”, the cholesterol entrapment entry is given as “improved cholesterol entrapment” and the vesicle disruption entry is “induce vesicle disruption”.

B2: N23: NPC1-targeting monobody clone N23 (SEQ ID NO: 36) (protein)
chain: VSSVPTKLEVVAATPTSLLISWDASSSSVSYYRITYGETGGPFWHYQTFTVPGSKSTATISGLKPGVDYTITVYTYSSSMHFSSSPISINYRT
On to B2, for which the LC3B accumulation entry in the experiment with HeLa cells is “did not induce LC3B accumulation”. Further, in the experiment with HCT-116 cell, the CRC cell proliferation entry was “no significant inhibition”. For the same molecule, in the experiment on PDAC MIA PaCa3 cells, the “endosomal release of calcein” value is “enhanced endosomal release of calcein” and the “calcein fluorescence (endosomal release of calcein)” value is reported as “increasing calcein fluorescence”. Also, the “fluorescence (endosomal escape of GFP11)” value in [1] was “observed”. Further, in the experiment on HeLa KRasV12 cells, the LC3B accumulation result is “did show an effect”. For the same molecule, in the experiment with NPC1, the “inhibition of NPC1 by endosomal accumulation of cholesterol” value is on record as “greatest inhibition of NPC1”, the cholesterol entrapment result is reported as “improved cholesterol entrapment” and the vesicle disruption result is listed as “induce vesicle disruption”.
